The text below walks through data of patent publication US9580460B2, “Discordant helix stabilization for prevention of amyloid formation” (AlphaBeta AB, priority 2000, dated 2017).

The target of data set [1] is T1, Aβ(1-40) (Homo sapiens, UniProt P05067).
T1 construct: purchased Research Genetics, Huntsville, Ala., USA; host or cells: chemical synthesis
Description: Fibril morphology of Aβ(1-40) in the presence of peptides, electron microscopy. The class given is biochemical. The note with it: in the presence of the peptide, compared with AAA or acetyl-AAA-amide. As to the method:
(§1) The relative abundance and morphology of fibrils was determined by electron microscopy after incubating each of the three Aβ peptides (100 μM) for three days at 37° C. in phosphate buffered saline (50 mM sodium phosphate/150 mM NaCl, pH 7.4) in the presence of 1 mM of a specific tripeptide or tetrapeptide ligand. Aggregates were collected by centrifugation at 20,000×g for 20 minutes. The pellets were suspended in a small volume of water by low-energy sonication for 5 seconds. Aliquots of 8 μl were placed on electron microscopy grids covered by a carbon-stabilized formvar film. Excess fluid was withdrawn after 30 seconds, and after air-drying the grids were negatively stained with 2% uranyl acetate in water. The stained grids were examined and photographed in a Philips CM120TWIN electron microscope operated at 80 kV. For a semi quantitative evaluation of the amount of material in the different specimens, the grids (50 mesh) were first scanned at low magnification and the number of larger fibril bundles per grid square estimated. The specimens were subsequently examined at high magnification to judge the size of the fibril bundles, the presence of smaller fibril aggregates, and the morphology of the individual fibrils.

In data set [2] the target is T1, Aβ(1-40). Put plainly: Fibril formation by Aβ(1-40) with tripeptide ligand, electron microscopy. The note with it: 100 μM Aβ(1-40), 1 mM ligand peptide, three days at 37° C., PBS pH 7.4, electron microscopy, semi quantitative. The class given is biochemical. As to the method: (§2) Synthetic peptides corresponding to human Aβ fragments 1-40 (amino acid sequence […]; SEQ ID NO:3), 12-24. and 14-23 were purchased from Research Genetics, Huntsville, Ala., USA. Aβ(1-40) was purified by reverse-phase HPLC over a C18 column, using a linear gradient of acetonitrile running into 0.1% trifluoroacetic acid for elution. The purified peptide was lyophilized, stored at −20° C. and dissolved shortly before experiments. The tripeptides and tetrapeptides were synthesized and purified by reverse-phase HPLC (>70% purity) by Interactiva, Darmstadt, Germany
as §1

In data set [3] the target is T2, Aβ(12-24) (Homo sapiens, UniProt P05067).
T2 construct: 12-24. and 14-23 were purchased from Research Genetics; purchased Research Genetics, Huntsville, Ala., USA; host or cells: chemical synthesis
Put plainly: Fibril formation by Aβ(12-24) with tripeptide ligand, electron microscopy. The class given is biochemical. The settings on record: 100 μM Aβ(12-24), 1 mM ligand peptide, three days at 37° C., PBS pH 7.4, electron microscopy, semi quantitative. The protocol:
as §2
as §1, with “Excess fluid was withdrawn after 30 seconds, and after air-drying the grids were negatively stained with 2% uranyl acetate in water. The stained grids were examined and photographed in a Philips CM120TWIN electron microscope operated at 80 kV.” left out, “The specimens were subsequently examined at high magnification to judge the size of the fibril bundles, the presence of smaller fibril aggregates, and the morphology of the individual fibrils.” left out

Data set [4] addresses T3, Aβ(14-23) (Homo sapiens, UniProt P05067).
T3 construct: 12-24. and 14-23 were purchased from Research Genetics; purchased Research Genetics, Huntsville, Ala., USA; host or cells: chemical synthesis
Put plainly: Fibril formation by Aβ(14-23) with tripeptide or tetrapeptide ligand, electron microscopy. The data set is classed as biochemical. The settings on record: for density of Aβ(14-23) fibrils (fibril formation): 100 μM Aβ(14-23), 1 mM ligand peptide, three days at 37° C., PBS pH 7.4, electron microscopy, semi quantitative; for reduction of Aβ fibrillation or aggregation: summary statement, Aβ peptide not specified (FIG. 7: Aβ(14-23)). As to the method: as §2, §1

Data set [5] addresses T1, Aβ(1-40). Description: Time-dependent aggregation of Aβ(1-40), amount left in solution after 20,000 xg centrifugation. The class given is biochemical. The settings on record: in the presence of the peptide; Aβ(1-40) left in solution after 20,000 xg centrifugation. The text has this: The effects of the peptides KAD, AAA, and KFFE (SEQ ID NO:1) on the time-dependent aggregation of Aβ(1-40), determined as the amount of Aβ(1-40) left in solution after 20,000 xg centrifugation, were studied. In the presence of AAA, Aβ(1-40) completely aggregated in 10-15 days. In the presence of KAD, Aβ(1-40) completely aggregated in 30-40 days. In the presence of KFFE (SEQ ID NO:1), Aβ(1-40) completely aggregated in about 3 days (FIG. 8).

The conditions of data set [6]: conditions where Aβ(1-42) readily forms fibrils; Tjernberg et al. 1996, 1999; cited from earlier work.
A short description of data set [7]: Fibril formation of proteins with long discordant helices, electron microscopy of 20,000×g pellets. The data set is classed as physicochemical. The settings on record: 10 μM to 100 μM in phosphate buffered saline pH 7.4, 37° C., three days. The text has this: The proteins used in these experiments included SP-C (lung SP-C forms amyloid in pulmonary alveolar proteinosis) purified from porcine lungs (Curstedt et al, 1987, Eur. J. Biochem. 168:255-262). PolyVal→polyLeu substituted SP-C (SP-C(Leu)) analogue was synthesized as described by Nilsson et al. (1998, Eur. J. Biochem, 255:116-124) was used in the experiments as was D-analyl-D-alanine transpeptidase from Streptomyces R61 was obtained from Drs. Frére and Joris, University of Liege, Belgium (Frere et al, 1973, Biochem. J. 135:463-468). Triacylglycerol lipase from Candida antarctica and human coagulation factor XIII were purchased from Sigma. For these fibrillation studies the latter three proteins were dissolved in phosphate buffered saline, pH 7.4, in concentrations ranging from 10 μM to 100 μM. SP—C and SP-C (Leu) were dissolved at 100 μM or 250 μM in chloroform/methanol/0.1 M HCl, 32:64:5 (by volume).
To assay for the formation of fibrils, the protein solutions were incubated at 37° C. for three days, then centrifuged at 20,000×g for 20 minutes. The concentrations of SP-C and SP-C(Leu) in the supernatants were determined by amino acid analysis of triplicate samples. Peptide concentration at start of the incubations was 250 μM for SP-C(Leu) and 100 μM for SP-C. […]

T1 sequence (P05067 672-711): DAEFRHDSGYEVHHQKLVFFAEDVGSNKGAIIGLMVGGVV

With KAD, the “morphology of Aβ(1-40) fibrillar structures” value in data set [1] is “much shorter and more dispersed”. Also, in data set [2], the “density of Aβ(1-40) fibrils (fibril formation)” value (“density of Aβ(1-40) fibrils” for short) is given as “significant reduction of fibril density”. In addition, the “density of Aβ(12-24) fibrils (fibril formation)” value in data set [3] is recorded as “significant reduction of fibril density”. Besides, the “density of Aβ(14-23) fibrils (fibril formation)” value (from here on “density of Aβ(14-23) fibrils”) in data set [4] is recorded as “significant reduction of fibril density”. Besides, in data set [5], the “time until Aβ(1-40) completely aggregated” value lay in the range of 30 to 40 days.

As to “unsubstituted Aβ(1-28): positions 1-28 of human Aβ”, in data set [6], the “fibril formation of the Aβ analogue itself” value is reported as “forms fibrils”.

With AAA, the “density of Aβ(1-40) fibrils” value in data set [2] is “no significant effect”. In data set [5], the “time until Aβ(1-40) completely aggregated” value was 10 to 15 days.

For “Aβ(1-28) with alanine substitutions at positions 16, 17, and 20: Aβ(1-28) variant K16A, L17A, F20A (DAEFRHDSGYEVHHQAAVFAAEDVGSNK; Amyloid-beta protein 42; UniProt P05067 672-699, looked up, variant K16A L17A F20A)”, the “fibril formation of the Aβ analogue itself” value in data set [6] is given as “does not form fibrils”.

Turning to “coagulation factor XIII: human coagulation factor XIII, purchased from Sigma”, the “fibril formation of the protein itself” value in data set [7] is recorded as “form fibrils”.

For acetyl-AAA-amide, the “density of Aβ(1-40) fibrils” value in data set [2] is “no significant effect”.

For “KFFE (Synthetically generated peptide) [dipolar tetrapeptide KFFE]”, in data set [4], the “density of Aβ(14-23) fibrils” value is “slightly promote fibril formation” and the “reduction of Aβ fibrillation or aggregation” value is “did not reduce”. For the same substance, in data set [5], the “time until Aβ(1-40) completely aggregated” value is “about 3 days”.

With acetyl-KAD-amide (Ac-Lys-Ala-Asp-NH2), the “morphology of Aβ(1-40) fibrillar structures” value in data set [1] was “much shorter and more dispersed”. For the same substance, in data set [2], the “density of Aβ(1-40) fibrils” value is listed as “equally efficient in reducing Aβ(1-40) fibril formation as the KAD peptide with free termini”.

Take “KFD [dipolar tripeptide, central Ala of KAD replaced with Phe]”: the “density of Aβ(14-23) fibrils” value in data set [4] is listed as “reduced Aβ(14-23) fibril formation, but to a lesser extent than KAD”.

Regarding “KAAE (Synthetically generated peptide) [dipolar tetrapeptide KAAE]”, the “reduction of Aβ fibrillation or aggregation” value in data set [4] is listed as “did not reduce”.
